The values that follow are results of earlier work, collected in publication PMC8112298.

This data set concerns the target protein Z (Homo sapiens) (UniProt P22891).
Chain of UniProt P22891 (P22891 41-400): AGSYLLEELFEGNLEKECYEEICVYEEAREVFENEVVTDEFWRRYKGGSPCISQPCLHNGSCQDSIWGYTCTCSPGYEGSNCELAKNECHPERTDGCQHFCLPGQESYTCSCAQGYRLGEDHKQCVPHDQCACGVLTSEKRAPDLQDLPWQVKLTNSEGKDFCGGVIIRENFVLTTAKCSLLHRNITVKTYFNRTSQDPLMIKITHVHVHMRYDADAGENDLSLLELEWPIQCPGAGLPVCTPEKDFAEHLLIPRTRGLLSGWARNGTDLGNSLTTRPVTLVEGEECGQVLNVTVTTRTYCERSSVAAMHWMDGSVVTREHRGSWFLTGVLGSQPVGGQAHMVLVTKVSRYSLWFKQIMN

Usually Kd stands for the constant that tells how readily two partners part at equilibrium. Regarding ZPI (from UniProt Q9UK55), the Kd is 10 nM.
